B1: Homeobox protein cut-like 2, residues 895 to 963; numbered along this chain, O14529 (parent)
chain: EVDTLELTRQVKEKLAKNGICQRIFGEKVLGLSQGSVSDMLSRPKPWSKLTQKGREPFIRMQLWLSDQL

Variants of: B1
Assay: abundance fitness (aPCA) (normalised: wild type 0, dead -1); higher = more abundant; growth selection in yeast, the domain comes from the species named
Conditions: Homo sapiens

Abundance fitness of substitutions, site by site:
F58: V -0.662; R -0.906; G -0.888; W -0.111; M -0.502; Y 0.186; K -1.11; N -1.1; I -0.596; C -0.845; A -0.917; Q -1.01; E -0.763; S -1.11; T -1.11; L -0.274
Q62: Y -0.278; K 0.17; I -0.277; C -0.263; N -0.401; M -0.153; H -0.127; S -0.079; R 0.015; D -0.654; G -0.06; A -0.098; F -0.69; W 0.005; P -0.84; V -0.367; T -0.308
G54: D 0.201; F -0.048; L -0.011; P -0.581; H -0.215; A 0.084; S -0.092; K -0.461; W -0.097; T -0.084; I 0.046; Y -0.165; M 0.004; C -0.007
P44: H -0.241; Q -0.135; Y -0.041; G -0.261; D -0.429; S -0.171; C -0.153; A -0.103; T -0.101; R -0.03; V -0.161; F -0.105; I -0.113; N -0.385; W -0.103; M -0.196; K -0.134; E -0.665
S48: W -0.387; P -0.229; Y -0.084; T -0.085; L -0.191; N -0.055; M -0.323; H -0.011; V -0.259; C -0.003; I -0.223; E -0.103; A -0.064; K -0.088; F -0.19; R -0.13; Q -0.085
K53: Y -0.061; I -0.037; T -0.166; Q -0.146; A -0.014; N -0.233; W -0.298; S 0.04; M -0.373; V -0.259; D -0.3; E -0.017; H -0.194; G -0.309; R -0.09; L -0.101; P -0.282; C -0.405
T51: L -0.082; D 0.117; N -0.082; Q -0.247; R -0.109; W -0.033; A -0.1; E -0.403; C -0.375; V -0.115; K -0.115; F -0.005; P -0.355; H -0.235; I -0.007; G -0.145; Y -0.011
Q52: N -0.215; E -0.016; K 0.094; V -0.034; G -0.18; L -0.025; D 0.017; W -0.187; P 0.01; C -0.038; Y -0.073; M -0.106; A 0.042; R 0.015; H -0.218; I -0.06; T 0.046
R60: V -0.863; H -0.462; C -0.681; A -0.27; N -0.413; T -0.209; K 0.15; P -0.912; W -0.553; Q -0.111; S -0.396; E -0.631; G -0.287; Y -0.633; M -0.38; L -0.215; I -0.653; D -0.905; F -1.08
S42: Y -0.075; V -0.146
W47: M -0.681; F -0.338; C -1.01; N -0.895; T -0.654; G -1.01; D -0.772; L -0.488; R -0.793; A -0.81; P -0.964; H -0.894; E -1.08; Q -0.84; Y -0.554; V -0.808; K -1.28
R43: F -0.101; M -0.224; K -0.047; C -0.14; P -0.357; G -0.233; T -0.162; Y 0.017; Q -0.066; H 0.004; A -0.034; E -0.124; S 0.064; I -0.329; V -0.23; W -0.191; D 0.013; N -0.03
P46: K -0.095; H -0.077; I -0.071; F 0.039; W 0.044; C -0.319; S -0.093; N -0.223; L 0.026; R -0.057; Q -0.053; A -0.236; V -0.415; Y -0.078; M -0.214; T -0.08
K45: H -0.288; T -0.149; Y -0.265; C -0.229; P -0.073; V -0.083; W -0.313; A -0.129; E -0.173; M -0.053; Q -0.132; D -0.108; L -0.009; F -0.243; R 0.128
E56: Q -0.06; K -0.156; G -0.245; D -0.186; R -0.157; F -0.362; T -0.22; V -0.182; Y -0.248; W -0.314; H -0.446; A -0.08; L -0.211; I 0.096; P -0.605; N -0.348; M -0.213; C -0.843; S -0.203
R55: G -0.674; M -0.385; T -0.359; Q -0.303; Y -0.76; K 0.052; V -0.487; A -0.511; D -0.954; S -0.559; C -0.625; P -0.814; H -0.654; L -0.486; N -0.671; I -0.684; F -0.569
L50: W -0.12; K -1.3; R -1.11; Y -0.191; P -1.04; S -0.865; D -0.607; I -0.437; E -1.11; T -0.808; V -0.522; A -0.748; C -0.488; G -0.652; F -0.315; Q -0.874
K49: P -0.731; F -0.281; H 0.009; Y -0.301; S -0.079; Q 0.034; T -0.035; N -0.16; I -0.112; L 0.002
I59: T -0.049; S -0.118; H 0.051; K 0.079; N -0.117; L -0.011; R 0.113; G -0.315; Y -0.059; F -0.212; C -0.278; W -0.299; E 0.028; D -0.535; P -0.937; M -0.046; A -0.079; Q 0.031
P57: A -0.016; Q -0.036; C -0.139; R -0.081; L 0.087; F -0.028; G -0.456; W -0.102; V -0.117; H -0.026; I 0.044; D -0.085; S -0.034; K -0.058; E -0.139; Y 0.027; T 0.017; M 0.073
M61: E -1.02; D -0.702; K -1.05; W -0.379; A -0.093; F -0.157; S -0.606; G -0.735; V -0.418; Q -1.02; C -0.292; L -0.191; Y -1; H -0.812; R -0.935
